These results are taken from paper PMC13623948.

The target of assay [1] is human UBA6 (full-length, amino acid residues 1-1052) (human) (UniProt A0AVT1).
Assay [2] deals with human UBA1 (human) (UniProt P22314). As to the kind of experiment: BLI; His-tagged E1 ligands on Anti-Penta-His (His1K) biosensors; analyte BIRC6^UBC or BIRC6^(UBCΔinsertion loop) at 40-3240 nM; 50 mM HEPES, pH 7.4, 150 mM NaCl, 0.05% Tween-20, 10 mM imidazole; 25 °C; steady-state 1:1 fit. (Biolayer interferometry detects binding as a change in optical thickness at a sensor tip.)

In assay [3] the target is oxyester-linked UBA6-Ub conjugate (UBA6 C625S charged with ubiquitin) (human) (UniProt A0AVT1). Described as above.

For orientation: pKd means −log10 of the Kd, conventionally taken in molar units. High values mean a small Kd, low ones a large Kd.

pKd: −log10 of the molar value.

Sequence of human UBA6 (full-length, amino acid residues 1-1052) (human) (A0AVT1 whole entry, the tested form may be a part): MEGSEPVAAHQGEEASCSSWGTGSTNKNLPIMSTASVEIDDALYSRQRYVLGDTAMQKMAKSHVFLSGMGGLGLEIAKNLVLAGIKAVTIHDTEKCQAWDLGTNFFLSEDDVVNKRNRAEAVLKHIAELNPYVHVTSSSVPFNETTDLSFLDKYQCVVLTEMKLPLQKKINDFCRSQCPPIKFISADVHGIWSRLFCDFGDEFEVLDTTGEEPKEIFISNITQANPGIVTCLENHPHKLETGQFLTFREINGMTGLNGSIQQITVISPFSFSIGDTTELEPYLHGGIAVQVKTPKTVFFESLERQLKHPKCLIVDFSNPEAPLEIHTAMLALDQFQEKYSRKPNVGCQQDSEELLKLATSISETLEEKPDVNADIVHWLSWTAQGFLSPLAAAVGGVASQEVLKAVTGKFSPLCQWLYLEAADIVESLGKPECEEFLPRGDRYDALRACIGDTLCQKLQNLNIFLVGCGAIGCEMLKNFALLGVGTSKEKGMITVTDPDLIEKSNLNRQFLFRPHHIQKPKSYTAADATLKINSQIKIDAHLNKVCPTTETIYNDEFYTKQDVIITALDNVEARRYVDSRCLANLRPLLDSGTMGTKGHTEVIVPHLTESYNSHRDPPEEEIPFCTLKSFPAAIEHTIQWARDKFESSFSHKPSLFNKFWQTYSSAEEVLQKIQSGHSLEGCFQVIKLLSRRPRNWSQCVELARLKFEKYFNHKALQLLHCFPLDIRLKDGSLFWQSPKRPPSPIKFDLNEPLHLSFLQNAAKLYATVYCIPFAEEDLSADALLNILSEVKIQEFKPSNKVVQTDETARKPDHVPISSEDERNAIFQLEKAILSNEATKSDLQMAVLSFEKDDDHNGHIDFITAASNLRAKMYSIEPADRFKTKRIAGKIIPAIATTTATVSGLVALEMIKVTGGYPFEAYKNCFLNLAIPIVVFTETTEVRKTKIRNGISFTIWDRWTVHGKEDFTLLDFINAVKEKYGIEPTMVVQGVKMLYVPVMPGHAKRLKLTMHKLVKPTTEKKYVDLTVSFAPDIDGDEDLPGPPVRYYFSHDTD
Sequence of UBC domain of BIRC6 (residues 4520-4857) (Q9NR09 4520-4857): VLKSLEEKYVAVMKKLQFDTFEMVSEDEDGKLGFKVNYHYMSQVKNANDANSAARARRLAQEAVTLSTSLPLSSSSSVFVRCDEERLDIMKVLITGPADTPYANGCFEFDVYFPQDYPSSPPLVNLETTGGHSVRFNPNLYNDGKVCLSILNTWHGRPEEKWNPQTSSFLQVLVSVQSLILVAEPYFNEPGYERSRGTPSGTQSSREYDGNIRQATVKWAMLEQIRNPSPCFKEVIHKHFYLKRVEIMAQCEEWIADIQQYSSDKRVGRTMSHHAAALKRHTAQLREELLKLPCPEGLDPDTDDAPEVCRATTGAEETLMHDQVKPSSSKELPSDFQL

As to “BIRC6^UBC C-terminal extension mutant (R4745A-R4799A-T4789A) (from UniProt Q9NR09 4520-4857) (domain or fragment)”, the reduction of Ub charging of BIRC6^UBC by UBA6 relative to WT (E1–E2 transthioesterification assay, 2 min) in assay [1] came to 50%.
The same measure, in the same setting: to “BIRC6^UBC N-helix mutant (R4576A-Q4580A-V4583G) (from UniProt Q9NR09 4520-4857) (domain or fragment)” belongs 25%; to “BIRC6^UBC N-terminal extension mutant (A4569R) (from UniProt Q9NR09 4520-4857)”, 25%.
For the substance “BIRC6^UBC Y4711G (from UniProt Q9NR09 4520-4857) (domain or fragment)”, the reduction of BIRC6^UBC~Ub formation by UBA6 relative to WT (E1–E2 transthioesterification assay, 2 min) in assay [1] was found to be 60%.
“BIRC6^UBC with the insertion loop deleted (from UniProt Q9NR09 4520-4857) (domain or fragment)” showed a pKd in assay [2] of 5.83.
In turn, “BIRC6^UBC β4 loop mutant (Q4634A) (from UniProt Q9NR09 4520-4857) (domain or fragment)” gave a reduction of Ub charging of BIRC6^UBC by UBA6 relative to WT (E1–E2 transthioesterification assay, 2 min) in assay [1] of 50%.
In assay [3], “UBC domain of BIRC6 (residues 4520-4857) (from UniProt Q9NR09 4520-4857) (domain or fragment)” showed a negative-log Kd (pKd) of 5.62.
